Test system: T1, KZ-sarcin recombinant protein
T1 sequence: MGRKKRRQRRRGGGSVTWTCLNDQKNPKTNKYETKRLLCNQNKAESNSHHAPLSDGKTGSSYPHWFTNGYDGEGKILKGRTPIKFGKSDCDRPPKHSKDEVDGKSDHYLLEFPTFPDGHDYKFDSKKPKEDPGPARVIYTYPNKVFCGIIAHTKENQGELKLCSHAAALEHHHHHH

**Q.** With caspase-3 (Sigma Chem. Co, U.S.A.) as the substance, how does the “hydrolysis of KZ-sarcin by caspase-3, SDS-PAGE (room temperature, 15 minutes)” value read?
**A.** KZ-sarcin recombinant protein was hydrolyzed by caspase-3 into two fragments of 12 kb and 8.5 kb

From patent US20170152293
